Test results published in patent US20220313789A1, “TARGETING MELANOCORTIN 3 RECEPTOR FOR TREATMENT/PREVENTION OF EATING, METABOLISM, AND/OR EMOTIONAL DISORDERS” (The Regents of the University of Michigan, priority 2019, published 2022).
Entries after “also recorded” stand apart in the source; their conditions may differ. Bridge positions count the residues as written; N and C are the ends. Square brackets hold non-standard residues; d marks the D form. Ends that are not written are not given here. d2Nal = N[C@H](Cc1ccc2ccccc2c1)C(=O)O; Ac6c = NC1(C(=O)O)CCCCC1; Nle = CCCC[C@H](N)C(=O)O

Experiments:
[1] = tested on: WT mice; test: CNO administration to WT mice; type: in vivo
Description: FIG. 9. […] 24-hour food intake following i.p. injections of saline or CNO. […] Data represented as mean+/−s.em. Data analyzed with Student's paired t-test. n=15 mice
Given the enhanced expression of MC3R in the orexigenic arcuate AgRP neurons, relative to POMC and vGLUT2 neurons, experiments were conducted during development of embodiments herein to determine whether the dominant role of MC3R in the arcuate is to stimulate food intake and increase body weight. A previously characterized (Ref. 18; herein incorporated by reference in its entirety) MC3R-Cre mouse model in which Cre recombinase is exclusively expressed in cells containing MC3R was utilized for these experiments. To selectively activate the MC3R expressing neurons in the arcuate, a Cre dependent AAV viral vector expressing the DREADD (designer receptor exclusively activated by designer drugs) activator hM3Dq was stereotaxically targeted to the arcuate nucleus in MC3R-Cre mice (Refs 22-23; herein incorporated by reference in their entireties) (FIG. 2). It was validated that CNO administration activates ARC-MC3R neurons by measuring the neuronal activity marker, cfos, in response to CNO or saline injections. […] To determine if chronic activation of ARC-MC3R neurons is a viable strategy for increasing food intake and body weight CNO was administered twice daily for five consecutive days. […]

[2] = tested on: arcuate MC3R expressing neurons (hM3Dq); test: DREADD (hM3Dq) activation of arcuate MC3R neurons by CNO; type: in vivo, mice
Excerpt: (§1) FIG. 2. Potent Bidirectional Regulation of Feeding by DREADD Activation of MC3R ARC neurons. (A) Representative images showing hM3Dq-mCherry (red), and cfos (green), in the arcuate nucleus of a mouse transduced with hM3Dq in arcuate MC3R expressing neurons following CNO or saline administration. Panels on right are an enlargement of the boxed sections. (B) Quantification of cfos expression in the arcuate nucleus following i.p. injections of saline or CNO (unpaired Student's t-test). […] (C) Acute feeding assays following DREADD mediated activation of arcuate MC3R neurons. Activation of MC3R neurons increased food intake at all times tested (2-way ANOVA with Bonferroni post-hoc test, n=10 mice). (D) Change in body weight following a single injection of CNO or saline. […] (E) Daily food intake in MC3R-Cre mice targeted with the inhibitory DREADD hM4Di in arcuate MC3R expressing neurons. […] (F) Change in body weight following long term CNO injections in hM4Di transfected and WT mice. […]
(§2) To evaluate the effects of DREADD mediated manipulation of ARC-MC3R neurons on feeding and body weight, mice were habituated to twice daily vehicle injections (i.p., saline; 200 ul). […] Food intake was measured twice daily (10 am and 6 pm) during chronic i.p. injection experiments. Body weight was measured daily at 10 am immediately prior to administering CNO/saline. […]

[3] = tested on: arcuate MC3R expressing neurons (hM4Di); test: DREADD (hM4Di) inhibition of arcuate MC3R neurons by CNO; type: in vivo; conditions: hM4Di transfected mice vs WT control
Excerpt: as §1, §2

[4] = tested on: PVN MC4R neurons; test: In vivo calcium imaging (GCAMP6s endomicroscopy) of PVN MC4R neurons; set-up: species or system mice; conditions: 10 mg/kg, i.p., vs baseline
Description: (left panels): Heat map displaying relative fluorescence, determined by endomicroscopy (Inscopix) of individual PVN MC4R neurons for five minutes of baseline recording, followed by five minutes of recording in response to a saline injection.
D: Change in florescence following i.p. administration of saline. […] F: Change in fluorescence following i.p. administration of the MC3R agonist C18 (10 mg/kg, i.p.). […] G: Heat plot showing real-time change in fluorescence activity in a representative mouse during baseline and following administration of C18. H: Average trace of the relative change in fluorescence before and after C18 administration. […] Data represents mean+/−s.e.m. for panels D-F. Panels D, F, and I analyzed with paired Student's t-test.

[5] = biological target: T1, MC3R (Mus musculus, UniProt P33033); test: MC3R agonist feeding assays (food intake, body weight) in WT mice; type: in vivo; conditions: for Acute food intake: 10 mg/kg, i.p., ad libitum fed mice, relative to vehicle; for 24-hour food intake / body weight: single peripheral injection
T1 construct: from tissue; host or cells: living mice (C57/BL6J background), central nervous system / hypothalamus
Description: Clozapine-N-Oxide (CNO) was purchased from Enzo Life Sciences. On the day of experiments fresh stock CNO (1 mg/0.1 ml) was prepared in water. CNO was administered via i.p. injections (200 ul Saline; 1 mg/kg). […] (5 ug; 500 nl DMSO).
Behavioral assays were performed on ad libitum fed mice. Mice were single caged for at least one week prior to starting feeding assays. Feeding assays were performed during the light period.
For peripheral administration of MC3R agonist compounds, mice were first habituated to vehicle injections (i.p.; saline in 10% DMSO; 200 ul) for 2-4 consecutive days. Following habituation and consecutive days of stable food intake in response to vehicle injections, agonist compounds were administered (i.p.; 10 mg/kg; saline in 10% DMSO). Food intake was measured following drug or vehicle administration by carefully removing food from the food hopper and weighing on a scale. Cages were changed daily during acute feeding assays to prevent spillage of food from the food hopper.
For central administration of MC3R agonist compounds we first administered vehicle injections (500 nl DMSO) for 2-4 consecutive days to habituate mice to handling and injection. […] Body weight was measured daily immediately prior to injections.

[6] = biological target: T2, MC3R (Homo sapiens, UniProt P41968); test: Primary HTS antagonist assay / screen for MC3R antagonists
Description: Primary HTS antagonist assay. […] (B): Positive and negative assay with kinetics of antagonist and agonist addition indicated. (C): Scatterplot of corrected and normalized data. Typical Z′ factors are above 0.5.

[7] = biological target: T2, MC3R; conditions: cited from earlier work
[8] = biological target: T2, MC3R; conditions: cited from earlier work; remark: listed apart in the source
[9] = biological target: T3, MC4R (Homo sapiens, UniProt P32245); conditions: cited from earlier work
[10] = biological target: T3, MC4R; conditions: cited from earlier work; remark: listed apart in the source

T1 sequence (P33033 whole entry): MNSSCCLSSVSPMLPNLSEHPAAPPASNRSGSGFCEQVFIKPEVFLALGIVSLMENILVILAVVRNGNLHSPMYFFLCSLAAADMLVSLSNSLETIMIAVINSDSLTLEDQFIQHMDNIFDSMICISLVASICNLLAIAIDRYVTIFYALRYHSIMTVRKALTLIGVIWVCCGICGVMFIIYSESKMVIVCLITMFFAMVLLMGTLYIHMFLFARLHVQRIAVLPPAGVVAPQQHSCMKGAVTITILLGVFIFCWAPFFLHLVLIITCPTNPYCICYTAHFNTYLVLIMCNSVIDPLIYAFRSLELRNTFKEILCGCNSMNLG
T2 sequence (P41968 whole entry): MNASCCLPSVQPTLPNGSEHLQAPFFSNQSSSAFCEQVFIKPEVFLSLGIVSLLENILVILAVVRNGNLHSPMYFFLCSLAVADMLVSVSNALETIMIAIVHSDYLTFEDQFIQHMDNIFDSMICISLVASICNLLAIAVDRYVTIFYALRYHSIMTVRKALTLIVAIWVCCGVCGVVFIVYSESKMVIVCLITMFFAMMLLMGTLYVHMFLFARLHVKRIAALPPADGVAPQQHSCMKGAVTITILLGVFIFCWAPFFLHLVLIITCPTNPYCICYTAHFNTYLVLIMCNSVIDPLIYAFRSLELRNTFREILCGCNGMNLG
T3 sequence (P32245 whole entry): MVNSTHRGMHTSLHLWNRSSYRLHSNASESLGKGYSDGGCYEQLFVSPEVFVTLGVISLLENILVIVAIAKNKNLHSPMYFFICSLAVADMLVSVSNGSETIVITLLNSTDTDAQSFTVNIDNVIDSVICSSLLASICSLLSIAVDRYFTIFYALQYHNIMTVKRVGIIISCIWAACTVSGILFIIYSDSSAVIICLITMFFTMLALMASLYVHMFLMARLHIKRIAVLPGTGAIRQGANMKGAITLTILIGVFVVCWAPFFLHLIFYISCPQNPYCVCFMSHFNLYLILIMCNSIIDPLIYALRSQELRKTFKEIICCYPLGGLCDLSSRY

Compound: C[N+]1([O-])CCN(C2=Nc3cc(Cl)ccc3Nc3ccccc32)CC1 [CNO, Clozapine-N-Oxide]
- body weight ([1]; CNO injections, WT littermate control mice): No change in food intake or body weight; also recorded: No effect on BW
- food intake ([1]; i.p. CNO vs saline, WT / littermate control mice): No change in food intake or body weight; also recorded: No difference in food intake was detected
- cfos expression in the arcuate nucleus ([2]; i.p. CNO vs saline, hM3Dq in arcuate MC3R neurons): increased cfos expression in the arcuate nucleus; also recorded: Dense cfos expression was observed in ARC-MC3R neurons
- Change in body weight ([2]; single injection of CNO or saline, hM3Dq mice, CNO 0.1 mg/kg): Body weight increased on the day following CNO injection, remaining elevated five days following CNO injection
- Change in body weight ([3]; long term / twice daily CNO): reduced BW in hM4Di transfected mice; also recorded: reduced both food intake and BW
- Daily food intake ([3]; twice daily CNO): reduced daily food intake in hM4Di transfected mice; also recorded: reduced both food intake and BW

Compound: Ac-Nle-c[Asp-Pro-Pro-DNal(2′)-Arg-Trp-Lys]-NH2 (Ac-[Nle]DPP[d2Nal]RWK-NH2; lactam 2-8) [PG990]
- Fluorescence activity of PVN MC4R neurons [4]: Fluorescence activity was suppressed
- Acute food intake [5]: acutely stimulated food intake
- weight gain ([5]; 3 days of treatment): 8%
- 24 h food intake ([5]; PG990 series of peptides, route not given in the sentence): increases 24 h food intake
- 24-hour food intake [5]: no significant difference
- body weight [5]: no significant difference

Compound: Polymyxin B
- MC3R over MC4R selectivity [6]: four-fold
- potency as MC3R antagonist ([6]; screen of Vanderbilt chemical library): submicromolar potency

Compound: [Ac6c-His-DPhe-Arg-Trp-Asp]-NH2 ([Ac6c]H[dF]RWD-NH2; N-terminus assumed; SMILES N=C(N)NCCC[C@H](NC(=O)[C@@H](Cc1ccccc1)NC(=O)[C@H](Cc1c[nH]cn1)NC(=O)C1(N)CCCCC1)C(=O)N[C@@H](Cc1c[nH]c2ccccc12)C(=O)N[C@@H](CC(=O)O)C(N)=O) [FMMC-5, MC3R peptide agonist]
- Acute food intake [5]: acutely stimulated food intake
- 24-hour food intake [5]: no significant difference
- body weight [5]: no significant difference
- IC50 [7]: 10 nM
- EC50 [8]: 30 nM
- EC50 [9]: 280 nM
- IC50 [10]: 260 nM
